The values that follow come from the Human Domainome abundance scans (Beltran et al. 2025).

± gives the uncertainty stated by the source.

B1: Cytoplasmic polyadenylation element-binding protein 2, residues 513 to 575; numbered along this chain, Q7Z5Q1 (parent)
chain: KRVEVKPYVLDDQMCDECQGARCGGKFAPFFCANVTCLQYYCEFCWANIHSRAGREFHKPLVK

Variants of B1 are the subject of this series. The experiment in a line: abundance fitness (aPCA) (normalised: wild type 0, dead -1); higher = more abundant; growth selection in yeast, the domain comes from the species named. The note with it: Homo sapiens.
Take KRVEVKPYVLDDQMCDECQGARCGGKFAPFFCANTTCLQYYCEFCWANIHSRAGREFHKPLVK [V35T]: the abundance fitness was 0.033 ± 0.053.
Under KRVEVKPYVLDDQMCDECQGARCGGKFAPFFCANPTCLQYYCEFCWANIHSRAGREFHKPLVK [V35P] stands 0.116 ± 0.053; under KRVEVKPYVLDDQMCDECQGARCGGKFAPFFCANWTCLQYYCEFCWANIHSRAGREFHKPLVK [V35W], -0.29 ± 0.053.
For the variant KRVEVKPYVLDDQMCDECQGARCGGKFAPFFCANRTCLQYYCEFCWANIHSRAGREFHKPLVK [V35R], the abundance fitness amounted to 0.077 ± 0.039.
Then KRVEVKPYVLDDQMCDECQGARCGGKFAPFFCANNTCLQYYCEFCWANIHSRAGREFHKPLVK [V35N], with 0.108 ± 0.078.
For KRVEVKPYVLDDQMCDECQGARCGGKFAPFFCANYTCLQYYCEFCWANIHSRAGREFHKPLVK [V35Y], the abundance fitness is -0.305 ± 0.14.
Under KRVEVKPYVLDDQMCDECQGARCGGKFAPFFCANQTCLQYYCEFCWANIHSRAGREFHKPLVK [V35Q] stands 0.021 ± 0.053; under KRVEVKPYVLDDQMCDECQGARCGGKFAPFFCANVTCLQIYCEFCWANIHSRAGREFHKPLVK [Y40I], -0.512 ± 0.096.
Under KRVEVKPYVLDDQMCDECQGARCGGKFAPFFCANVTCLQAYCEFCWANIHSRAGREFHKPLVK [Y40A] stands -0.149 ± 0.056; under KRVEVKPYVLDDQMCDECQGARCGGKFAPFFCANVTCLQGYCEFCWANIHSRAGREFHKPLVK [Y40G], -0.474 ± 0.045; under KRVEVKPYVLDDQMCDECQGARCGGKFAPFFCANVTCLQFYCEFCWANIHSRAGREFHKPLVK [Y40F], -0.087 ± 0.089.
For KRVEVKPYVLDDQMCDECQGARCGGKFAPFFCANVTCLQEYCEFCWANIHSRAGREFHKPLVK [Y40E], the abundance fitness is -0.702 ± 0.063.
Then KRVEVKPYVLDDQMCDECQGARCGGKFAPFFCANVTCLQHYCEFCWANIHSRAGREFHKPLVK [Y40H], with -0.092 ± 0.066; and KRVEVKPYVLDDQMCDECQGARCGGKFAPFFCANVTCLQCYCEFCWANIHSRAGREFHKPLVK [Y40C], with -0.411 ± 0.1; and KRVEVKPYVLDDQMCDECQGARCGGKFAPFFCANVTDLQYYCEFCWANIHSRAGREFHKPLVK [C37D], with -0.766 ± 0.1.
As for KRVEVKPYVLDDQMCDECQGARCGGKFAPFFCANVTSLQYYCEFCWANIHSRAGREFHKPLVK [C37S], the abundance fitness was -0.54 ± 0.059.
Then KRVEVKPYVLDDQMCDECQGARCGGKFAPFFCANVTQLQYYCEFCWANIHSRAGREFHKPLVK [C37Q], with -1.02 ± 0.13; and KRVEVKPYVLDDQMCDECQGARCGGKFAPFFCANVTRLQYYCEFCWANIHSRAGREFHKPLVK [C37R], with -0.55 ± 0.057.
In the case of KRVEVKPYVLDDQMCDECQGARCGGKFAPFFCANVTPLQYYCEFCWANIHSRAGREFHKPLVK [C37P], the abundance fitness is -0.496 ± 0.064.
Under KRVEVKPYVLDDQMCDECQGARCGGKFAPFFCANVTTLQYYCEFCWANIHSRAGREFHKPLVK [C37T] stands -1 ± 0.12.
Then KRVEVKPYVLDDQMCDECQGARCGGKFAPFFCANVTFLQYYCEFCWANIHSRAGREFHKPLVK [C37F], with -0.85 ± 0.14.
Under KRVEVKPYVLDDQMCDECQGARCGGKFAPFFCANVTHLQYYCEFCWANIHSRAGREFHKPLVK [C37H] stands -0.352 ± 0.29; under KRVEVKPYVLDDQMCDECQGARCGGKFAPFFCANVTVLQYYCEFCWANIHSRAGREFHKPLVK [C37V], -0.88 ± 0.068; under KRVEVKPYVLDDQMCDECQGARCGGKFAPFFCANVTLLQYYCEFCWANIHSRAGREFHKPLVK [C37L], -0.931 ± 0.074.
Consider KRVEVKPYVLDDQMCDECQGARCGGKFAPFFCANVTELQYYCEFCWANIHSRAGREFHKPLVK [C37E], for which the abundance fitness is -0.76 ± 0.083.
Under KRVEVKPYVLDDQMCDECQGARCGGKFAPFFCANVTYLQYYCEFCWANIHSRAGREFHKPLVK [C37Y] stands -0.806 ± 0.12.
As to KRVEVKPYVLDDQMCDECQGARCGGKFAPFFCANVTWLQYYCEFCWANIHSRAGREFHKPLVK [C37W], the abundance fitness is -0.952 ± 0.092.
Then KRVEVKPYVLDDQMCDECQGARCGGKFAPFFCANVTILQYYCEFCWANIHSRAGREFHKPLVK [C37I], with -0.568 ± 0.16.
Then KRVEVKPYVLDDQMCDECQGARCGGKFAPFFCANVTGLQYYCEFCWANIHSRAGREFHKPLVK [C37G], with -0.633 ± 0.056; and KRVEVKPYVLDDQMCDECQGARCGGKFAPFFCANVTALQYYCEFCWANIHSRAGREFHKPLVK [C37A], with -0.82 ± 0.06; and KRVEVKPYVLDDQMCDECQGARCGGKFAPFFCANVTCLVYYCEFCWANIHSRAGREFHKPLVK [Q39V], with -0.001 ± 0.044.
For the variant KRVEVKPYVLDDQMCDECQGARCGGKFAPFFCANVTCLFYYCEFCWANIHSRAGREFHKPLVK [Q39F], the abundance fitness was -0.472 ± 0.089.
Then KRVEVKPYVLDDQMCDECQGARCGGKFAPFFCANVTCLTYYCEFCWANIHSRAGREFHKPLVK [Q39T], with -0.002 ± 0.053; and KRVEVKPYVLDDQMCDECQGARCGGKFAPFFCANVTCLNYYCEFCWANIHSRAGREFHKPLVK [Q39N], with -0.103 ± 0.081; and KRVEVKPYVLDDQMCDECQGARCGGKFAPFFCANVTCLCYYCEFCWANIHSRAGREFHKPLVK [Q39C], with -0.046 ± 0.064.
Under KRVEVKPYVLDDQMCDECQGARCGGKFAPFFCANVTCLEYYCEFCWANIHSRAGREFHKPLVK [Q39E] stands -0.13 ± 0.06; under KRVEVKPYVLDDQMCDECQGARCGGKFAPFFCANVTCLMYYCEFCWANIHSRAGREFHKPLVK [Q39M], 0.078 ± 0.074.
Take KRVEVKPYVLDDQMCDECQGARCGGKFAPFFCANVTCLSYYCEFCWANIHSRAGREFHKPLVK [Q39S]: the abundance fitness is 0.016 ± 0.045.
Under KRVEVKPYVLDDQMCDECQGARCGGKFAPFFCANVTCLDYYCEFCWANIHSRAGREFHKPLVK [Q39D] stands -0.631 ± 0.087.
Under KRVEVKPYVLDDQMCDECQGARCGGKFAPFFCANVTCLIYYCEFCWANIHSRAGREFHKPLVK [Q39I] stands -0.573 ± 0.1; under KRVEVKPYVLDDQMCDECQGARCGGKFAPFFCANVTCLRYYCEFCWANIHSRAGREFHKPLVK [Q39R], 0.129 ± 0.045; under KRVEVKPYVLDDQMCDECQGARCGGKFAPFFCANVTCLHYYCEFCWANIHSRAGREFHKPLVK [Q39H], 0.089 ± 0.083.
